This series in a line: label from the status in PepcDB records.
Consider “MERQVLLSEPEEAAALYRGLSRQPALSAACLGPEVTTQYGGQYRTVHTEWTQRDLERMENIRFCRQYLVFHDGDSVVFAGPAGNSVETRGELLSRESPSGTMKAVLRKAGGTGPGEEKQFLEVWEKNRKLKSFNLSALEKHGPVYEDDCFGCLSWSHSETHLLYVAEKKRPKAESFFQTKALDVSASDDEIARLKKPDQAIKGDQFVFYEDWGENMVSKSIPVLCVLDVESGNISVLEGVPENVSPGQAFWAPGDAGVVFVGWWHEPFRLGIRFCTNRRSALYYVDLIGGKCELLSDDSLAVSSPRLSPDQCRIVYLQYPSLIPHHQCSQLCLYDWYTKVTSVVVDVVPRQLGENFSGIYCSLLPLGCWSADSQRVVFDSAQRSRQDLFAVDTQVGTVTSLTAGGSGGSWKLLTIDQDLMVAQFSTPSLPPTLKVGFLPSAGKEQSVLWVSLEEAEPIPDIHWGIRVLQPPPEQENVQYAGLDFEAILLQPGSPPDKTQVPMVVMPHGGPHSSFVTAWMLFPAMLCKMGFAVLLVNYRGSTGFGQDSILSLPGNVGHQDVKDVQFAVEQVLQEEHFDASHVALMGGSHGGFISCHLIGQYPETYRACVARNPVINIASMLGSTDIPDWCVVEAGFPFSSDCLPDLSVWAEMLDKSPIRYIPQVKTPLLLMLGQEDRRVPFKQGMEYYRALKTRNVPVRLLLYPKSTHALSEVEVESDSFMNAVLWLRTHLGS”, for which the protein production result is “failed”.

With “MERRLTTILAADLSGYSRLMAADEEGTVTRLRHLFADIVRPDLSREGGRLIKTMGDGMLVEFASPVAALRSAVAILQQVARDQVETAPDTRMLFRVGIHLGDVISDGDDILGDAVNIAARLESLATPGGICISRSVHDQVRGKVDAELIELGPQPVKNIPDPVEVWRVGAEGIACAAEKPAVRAELPAVVILPFDNMSADPEQDFLADGIVEDVTTELSRFRTLTVIARNSAFAYKGSHKDVRQIAEELGVRYVVEGSVRRAGDRLRATAQLIDARTGAHVWADRWDRTMADLFDLQDELTAAILSGVEPELGAHERNLARRKPTDSLTAWEMCQKGYSEFTRYTDEGYSQAHAYYTRAIAADPDFALPHALLARLAWVKVITGRTRDPAAEISTGLDHAAQAIERDDRLEIGYVALGVLLAITGREQDAADALDKAEALNPNNAVLHFGRCHACLFMQRLDCDRLERAARTALRLNPKDPMAWGFWFQLGNAFTFRDIDAAEPEALAAYETACRFANADYFVFMATALKHAKLGNRDKAAHYLAQARERYPALTAEFWRRAFRFPIWSRWVAADEPNIQLLIDLGLPQK”, the protein production entry was “failed”.

Take “MERVAVVGVPMDLGANRRGVDMGPSALRYARLLEQLEDLGYTVEDLGDVPVSLARASRRRGRGLAYLEEIRAAALVLKERLAALPEGVFPIVLGGDHSLSMGSVAGAARGRRVGVVWVDAHADFNTPETSPSGNVHGMPLAVLSGLGHPRLTEVFRAVDPKDVVLVGVRSLDPGEKRLLKEAGVRVYTMHEVDRLGVARIAEEVLKHLQGLPLHVSLDADVLDPTLAPGVGTPVPGGLTYREAHLLMEILAESGRVQSLDLVEVNPILDERNRTAEMLVGLALSLLGKRIF”: the protein production result was “not failed”.

On to “MERYTKKNERFKAEEGKGSKKSRTFLTERERRALFNDRFFDLKNLIPNPTKGGEASIVQDGIVYINELQRLVSELKYLVEKKKCGARHNNIEVDNKNTIYGTSKIEHPFSKNKNTFNCLIRTLRFVHHF”, for which the protein production entry is on record as “failed”.

As to “MESAPSRLDGDRPRLSVRLLGPLEILRDGVPLALPASRKLRALLAYLALAPHAVGRGRLCELLWDVPNDPRGELRWCLSKLRAALDTPDRRRVTTQGDAVALDLDGCLVDALEISQAAAQGIATLDVERLQGLAGLFAGDLLDGLELERSPHFDSWLVAQRRRFDAYHAAVLEQLAASLPADCDETVSRLDRWIELAPFDTRAHAALLASLARRGEIGAAEQHLASAERLFQSEDLDFAPLRQAWRSIRDQRASHQAQPAGLPTPSHLVAASGDTGPVEPSHASLAVMPFVDESGARGGLADGFTHDIITRLAKLRDFFVIARGSVFALAEKAIAPEEAGRKLGVDYVASGTVRSLTGRLIVSVELVEVRTARIVWAETFERRPHDLFAVLDDIGDSIVSSISAEIETVERNRAMLKAPNSLNAWEAYHRGLWHMYRFTQAENEQARHFFDKALQLDPTFARAYAGLSFTHWQNAFQRWGDRDRESALAYESAGHSLLVDDHNPAAHWAMGRALWLRGEQDGSLAELERAVDLSPNFALGHYALSFVHSQSGDPQAAIGSSDHSRHLSPFDPLLFGMLGSRAMSHVRLGQFEEAAEWALKAAARPNAHTIILAIAAHCLALAGRLDEARGFAAAIRKTLPDYRADDFIGTFRFDPDAEALFRQGARRIGFS”, the protein production result was “failed”.

For the sequence “MESESSGLSFPLGLYDAIIAHARSVFPEECCGLVAAPAGGAPIRVIPMENALHSPVRYEMNPKEQFQVQKNLRREGLEMWAIYHSHPVTRPYPSETDIRLAFYPELYYLLTSLAEDPPPLKAYTIQNGVVREIPLKVSPGES”, the protein production result is listed as “failed”.

For “MESNLTYTEALLKLEEIVEQIEDDSIMLDTLTEKVMQANELIKYCETKLRTIEGDVRDVLQ”, the protein production result was “failed”.

Regarding “MESVRIEQMLSLPAEVSSDNLESAERGASAAQVDMGPHPKVAAEGPAPLPTREPEQEQSPGTSTPESKVLLTQADALASRGRIREALEVYRQLSERQQLVAEQLEQLVRCLAEKVPQGEALAPAPPDEGSTASGTVAAEETGAAAAAAATEVWDGFKCRKCHGFLSDPVSLSCGHTFCKLCLERGRAADRRCALCGVKLSALMVATGRARGARRAGQQPPPPLRVNVVLSGLLGKLFPGPARASQLRHEGNRLYRERQVEAALLKYNEAVKLAPNDHLLYSNRSQIYFTLESHENALHDAEIACKLRPMGFKDNLELPHCSSQEEAAARGDGSSLMDPAKVKGDGQQHHMKDQEEEEEKWDATSPKAASSKTGKCQEKKRKHCQIESQEETGMPNKASKQDPPTDQGDKPALSLPLASFDASDLECALCMRLFYEPVTTPCGHTFCLKCLERCLDHNAKCPLCKDGLSQCLASRKYSKNVIMEELIAKFLPEELKERRKLYEEEMEELSNLNKNVPIFVCTMAYPTVPCPLHIFEPCYRLMIRRCIETGTRQFGMCLGDPVKGFAEYGCILEIRNVQFFADGRSVVDSIGKRRFRVLHQSQRDGYNTADIEYIEDQKVQGEDCAELMGLHNCVYQQASLWFHSLKLSLKNRILNHFGPMPEKDADPQMNPNGPAWCWWMLAVLPLESRAQLPFLAMRSLKDRLNGIRRVLAFISRNQN”, the protein production result was “failed”.

In the case of “MESYSPAQTCLELVPVLADDSISAASTSDVQDRLSALESRVQQQEDEITVLKAALADVLRRLAISEDHVASVKKSMPSKGQPSLREAISMSCITNGSGINRKQNHTSSISIARKETLSSAAKSGTEKKKEKPQGQREKKEESHSNDQSPQIRASPSPQPSSQPLQINRQTPESKSSAPTKSIKRPPTAEKSHNSWENSDDSRNKLLKTVSTSKLISKVIKNTDKHKDVIINQAKMSTREKSSQEGEYIKMFMRGRPITMFIPSDVDNYDDIRTELPPEKLKLEWVYGYRGKDCRANVYLLPTGEIVYFIASVVVLFNYEERTQRHYLGHTDCVKCLAVHPDKIRMATGQIAGVDKDGRPLQPHVRVWDSVSLSTLHVIGLGTFERGVGCLDFSKADSGVHLCVIDDSNEHMLTVWDWQRKSKVAEIKTTNEVVLAVEFHPTDANTIITCGKSHIFFWTWSGNSLTRKQGIFGKYEKPKFVQCLAFLGNGDVLTGDSGGVMLIWSKTTIEPPPGKGPKGVYQISRQIKAHDGSVFTLCQMRNGMLLTGGGKDRKIILWDHDLNLEREIEVPDQYGTIRAVAEGKAEQFLVGTSRNFILRGTFNDGFQIEVQGHTDELWGLATHPFKDLLLTCAQDRQVCMWNSVEHRLEWTRLVDEPGHCADFHPSGTVVAIGTHSGRWFVLDAETRDLVSIHTDGNEQLSVMRYSVDGTLLAVGSHDNFIYLYAVSENGRKYSRYGKCTGHSSYITHLDWSPDNKHIMSNSGDYEILYWDIENGCKLIRNRSDCKDIDWTTYTCVLGFQVFGVWPEGSDGTDINALVRSHHRRVIAVADDFCKVHLFQYPCSKPKAPSHKYSAHSSHVTNVSFTHNDSHLISTGGKDMSIIQWKLVEKLPLPQNEVIADTSSTKAPASATENARLCNAPQPPSQPLPGTAEEESRVSSSPTLVENSLEQSEWGSEDLGVVIDEEPASERGEKQGAAEASEEEQGAAPLC”, the protein production entry was “failed”.

As for “METESIKLDVQVTTTSQDPSLGLLSTVIITLDRDLEEYDENVDSIKSLGSYPDSSTPDESLIILKLPTSEPDYIYLTLRSKLKDHLHDHVLSEEIADQIFEAQLGTQSIDQFPFQQPLFMLVSVKLTQKLYTYAPCNASPLATDLTKRAK”, the protein production entry is on record as “failed”.

For “METGTHVRDVIFPGGNAAPDAGSVVAAIHQLPTLRLLSLDAHGRVLDWINWQDAACLYARDAVSWTLGEPCMQIHGGISRLTGERSTLELHPIIAARGHARSRALDPTPTLSNTALFARDAQLCMYCGQHFSRPHLTRDHVMPVSKGGRDSWENVVTACFQCNSRKANRTPQQAHMPLLAVPYRPSWIEHLILSNRNILSDQMAFLRAQLPKRSKLSLQAGAPRVADPG”, the protein production result is “failed”.

For “METKQDNLIYVWDAYCGWCYGFSESIKGFYKNHTEVPLTVLCGGLFLDNLPMKNFSYIEEGNKRINQLTGAEFGPSYQKLVEEGTFKMNSKDAAIGFSALRSLAPDRLLEFTSAMQKAFYYEGQSLSDPETYRKIAIEHGLDPEQVLERLNAQETIIDVQNDFNKVRQLGVNSYPSLLLQKDNQIIPIGGGVMTPDKIEARFKNLY”, the protein production result is “failed”.

Turning to “METLSDVFATFSQRGDTTAFVHRTGVRRYVFTYLDLHALSLRMNRWLADQGVGEGDRVVLWGPNSPWWAVAFWGIVTRGAVAVPVDFMSGAERAEIIAGLTDAKLVIQSRDKLDRLTGRPSVLLEELGFLLEAVEPLATTHRPAPDDMAELIYTSGTTGNPKGVILTHRNLVANILQVNRHIPVVTPDFSFLSLLPLSHMFEQMGGFFTPLYRGAAIVYIRTLKPSAIMEALGEEDIYAIIAVPRLLQLLKGSVERELEAKGLGSIFRWLLKVGERMSRGGRSVLFRPIQRKFGRNFALFVSGGAPLDPEVFRFWNGLGFRVVEGYGLTECSPVLTANTMERQVMGSVGTPLDGVELRLEEGEILARGDNIFPGYFRNEEATRGAFVDGWFRTGDLGELDPDGWLRIKGRSKELIVTGAGVNVYPDEIEAILNRTQGVREGCVIGLDRGKGEEVHGVLILDGSGRPTEEIVNEVNAKFDELHRITSFSVWPEAEFPKTTTLKIRKFQVKERIEQGGGALGDGRGADRLTALVATITGSPLEQVTEGALLVNDLGLTSIARLELVNALEMEFRLDLEDSVIGPQTRVADLREIVSRREKVHIREHFRIWAMGGVALAVRRLLDTVLHGPLLRAFVTLKSLGIENLEAADGPVMFVSNHLSYLDQPAIMCVLPDAWRYNTATAAWEEFFFRNFKNLPQRLWKRFTYEYASVAFTVFPLPQSRGFRGALHFMGTLADQGMNILLFPEGERSRDGRLLPFQQGLGVMIRELGVPVVPVRIRGLEKVLPRGASWPQKGEVSITFGKPIHFRGESPTEIVDRARRAVEDLLEHHHHHH”, the protein production result was “failed”.

For “METNKNFAVIGLGEFGSRICEVLVDGGASVVAFDHDIQAVERIKKIVPAAMLVETTNEEALLKAPLDDVEVAIVAIGNNIEASVLTTTLLKQRDIPYVLARAVSPLHATVLRRVGANEVLNIEISAATRIARRLISPDVMDSIAVTKDFSIREIIVPKFFIGKTVGSVALKEKFNITLIALVRMALDIDSVGNPVKQEVMHYPEDDFELREGDKLFLIGSNIKLEEFRNM”, the protein production entry is reported as “failed”.

In the case of “METPYHQRWLAFPDAVSSYRPLESRLAGTSRATADNRTPCTGRLGTPRVFLMATDDVSKAYSSPTFDAEALLGTVISAEDPDRVLIEPWATGVDGVILDVGSGTGRWTGHLASLGHQIEGLEPATRLVELARQTHPSVTFHHGTITDLSDSPKRWAGLLAWYSLIHMGPGELPDALVALRMAVEDGGGLLMSFFSGPSLEPMYHPVATAYRWPLPELAQALETAGFQVTSSHWDPRFPHAYLTAEASLEHHHHHH”, the protein production result was “not failed”.

These data come from a protein production outcome set (Wang et al. 2014).
